Measurements published in article PMC3936483 (The Biochemical journal, 2008).
Values joined by “and” are separate entries in the source; they are usually repeats but may differ in a detail not shown here. Equal entries are not always repeated.

B1: serum CTRP5 (natural protein, mouse (endogenous in C57BL/6 serum), UniProt Q8K479 16-243, looked up)
chain: SPPLDDNKIPSLCPGQPGLPGTPGHHGSQGLPGRDGRDGRDGAPGAPGEKGEGGRPGLPGPRGEPGPRGEAGPMGAIGPAGECSVPPRSAFSAKRSESRVPPPADTPLPFDRVLLNEQGHYDPTTGKFTCQVPGVYYFAVHATVYRASLQFDLVKNGQSIASFFQYFGGWPKPASLSGGAMVRLEPEDQVWVQVGVGDYIGIYASIKTDSTFSGFLVYSDWHSSPVFA
B2: CTRP3ΔCys (C39A/C42A/C43A), C-terminal FLAG-tagged (natural protein, UniProt Q9ES30 23-246, looked up)
chain: QDEYMESPQAGGLPPDASKAAHGDYGFRGYQGPPGPPGPPGIPGNHGNNGNNGATGHEGAKGEKGDKGDLGPRGERGQHGPKGEKGYPGVPPELQIAFMASLATHFSNQNSGIIFSSVETNIGNFFDVMTGRFGAPVSGVYFFTFSMMKHEDVEEVYVYLMHNGNTVFSMYSYETKGKSDTSSNHAVLKLAKGDEVWLRMGNGALHGDHQRFSTFAGFLLFETK
B3: CTRP3 (C1q/TNF-related protein 3), C-terminal FLAG- or HA-tagged, full length (natural protein, UniProt Q9ES30 23-246, looked up)
chain: QDEYMESPQAGGLPPDCSKCCHGDYGFRGYQGPPGPPGPPGIPGNHGNNGNNGATGHEGAKGEKGDKGDLGPRGERGQHGPKGEKGYPGVPPELQIAFMASLATHFSNQNSGIIFSSVETNIGNFFDVMTGRFGAPVSGVYFFTFSMMKHEDVEEVYVYLMHNGNTVFSMYSYETKGKSDTSSNHAVLKLAKGDEVWLRMGNGALHGDHQRFSTFAGFLLFETK
modifications: carbohydrate moieties (type and sites not determined; none N-linked)
B4: CTRP6 (C1q/TNF-related protein 6), C-terminal FLAG- or HA-tagged, full length (natural protein, UniProt Q6IR41 25-264, looked up)
chain: VPTEETTFGESVASHLPKGCRRCCDPEDLMSSDDTVQAPVSPYVLPEVRPYINITILKGDKGDRGPTGTPGKPGKNGTRGDRGSQGVKGDKGQAGSPGSSCQTHYSAFSVGRKTGLHSSENFLSLLFDRVFVNTDGHFDMATGSFVAPLRGLYFFSLNVHSWNYKETYVHIVHNEQAVVILYAQPSERSIMQSQSVMLPLVPGDRVWVRLFKRERENGIYSDDVDTYITFSGHLIKAEDN
modifications: N-linked glycans (sites not given)
B5: CTRP6ΔCys (C44A/C47A/C48A/C125A), C-terminal FLAG- or HA-tagged (natural protein, UniProt Q6IR41 25-264, looked up)
chain: VPTEETTFGESVASHLPKGARRAADPEDLMSSDDTVQAPVSPYVLPEVRPYINITILKGDKGDRGPTGTPGKPGKNGTRGDRGSQGVKGDKGQAGSPGSSAQTHYSAFSVGRKTGLHSSENFLSLLFDRVFVNTDGHFDMATGSFVAPLRGLYFFSLNVHSWNYKETYVHIVHNEQAVVILYAQPSERSIMQSQSVMLPLVPGDRVWVRLFKRERENGIYSDDVDTYITFSGHLIKAEDN
B6: CTRP5ΔCys (C28A/C98A), C-terminal FLAG-tagged (natural protein, UniProt Q8K479 16-243, looked up)
chain: SPPLDDNKIPSLAPGQPGLPGTPGHHGSQGLPGRDGRDGRDGAPGAPGEKGEGGRPGLPGPRGEPGPRGEAGPMGAIGPAGEASVPPRSAFSAKRSESRVPPPADTPLPFDRVLLNEQGHYDPTTGKFTCQVPGVYYFAVHATVYRASLQFDLVKNGQSIASFFQYFGGWPKPASLSGGAMVRLEPEDQVWVQVGVGDYIGIYASIKTDSTFSGFLVYSDWHSSPVFA
B7: CTRP5 (C1q/TNF-related protein 5), C-terminal FLAG- or HA-tagged, full length (natural protein, UniProt Q8K479 16-243, looked up)
chain: SPPLDDNKIPSLCPGQPGLPGTPGHHGSQGLPGRDGRDGRDGAPGAPGEKGEGGRPGLPGPRGEPGPRGEAGPMGAIGPAGECSVPPRSAFSAKRSESRVPPPADTPLPFDRVLLNEQGHYDPTTGKFTCQVPGVYYFAVHATVYRASLQFDLVKNGQSIASFFQYFGGWPKPASLSGGAMVRLEPEDQVWVQVGVGDYIGIYASIKTDSTFSGFLVYSDWHSSPVFA
modifications: carbohydrate moieties (type and sites not determined; none N-linked)
B8: adiponectin, C-terminal FLAG- or HA-tagged, full length (natural protein, UniProt Q60994 18-247, looked up)
chain: EDDVTTTEELAPALVPPPKGTCAGWMAGIPGHPGHNGTPGRDGRDGTPGEKGEKGDAGLLGPKGETGDVGMTGAEGPRGFPGTPGRKGEPGEAAYVYRSAFSVGLETRVTVPNVPIRFTKIFYNQQNHYDGSTGKFYCNIPGLYYFSYHITVYMKDVKVSLFKKDKAVLFTYDQYQEKNVDQASGSVLLHLEVGDQVWLQVYGDGDHNGLYADNVNDSTFTGFLLYHDTN
B9: CTRP10 (C1q/TNF-related protein 10), C-terminal FLAG- or HA-tagged, full length (natural protein, mouse, UniProt Q8CFR0 22-287, looked up)
chain: HYEMLGTCRMICDPYSVAPAGGPAGAKAPPPGPSTAALEVMQDLSANPPPPFIQGPKGDPGRPGKPGPRGPPGEPGPPGPRGPPGEKGDSGRPGLPGLQLTTSAAGGVGVVSGGTGGGGDTEGEVTSALSAAFSGPKIAFYVGLKSPHEGYEVLKFDDVVTNLGNHYDPTTGKFSCQVRGIYFFTYHILMRGGDGTSMWADLCKNGQVRASAIAQDADQNYDYASNSVVLHLDSGDEVYVKLDGGKAHGGNNNKYSTFSGFLLYPD
modifications: carbohydrate moieties (type and sites not determined; none N-linked)
B10: CTRP10ΔCys (C29A/C33A), C-terminal FLAG-tagged (natural protein, mouse, UniProt Q8CFR0 22-287, looked up)
chain: HYEMLGTARMIADPYSVAPAGGPAGAKAPPPGPSTAALEVMQDLSANPPPPFIQGPKGDPGRPGKPGPRGPPGEPGPPGPRGPPGEKGDSGRPGLPGLQLTTSAAGGVGVVSGGTGGGGDTEGEVTSALSAAFSGPKIAFYVGLKSPHEGYEVLKFDDVVTNLGNHYDPTTGKFSCQVRGIYFFTYHILMRGGDGTSMWADLCKNGQVRASAIAQDADQNYDYASNSVVLHLDSGDEVYVKLDGGKAHGGNNNKYSTFSGFLLYPD
B11: CTRP1ΔCys (C73A/C76A/C77A/C141A), C-terminal FLAG-tagged (natural protein, mouse, UniProt Q9QXP7 26-281, looked up)
chain: LVPRVQEEQQEWEETEELPSPLDPVTRPEETREKYSPRQGEDLPTSRAYRAADPSTPVYQTIPPPQINITILKGEKGDRGDRGLQGKYGKIGSTGPRGHVGPKGQKGSIGAPGNHAKSQYAAFSVGRKKALHSNDYFQPVVFDTEFVNLYKHFNMFTGKFYCYVPGIYFFSLNVHTWNQKETYLHIMKNEEEVVILYAQVSDRSIMQSQSLMMELREEDEVWVRLFKGERENAIFSDEFDTYITFSGYLVKPASEP
B12: CTRP1 (C1q/TNF-related protein 1), C-terminal FLAG- or HA-tagged, full length (natural protein, mouse, UniProt Q9QXP7 26-281, looked up)
chain: LVPRVQEEQQEWEETEELPSPLDPVTRPEETREKYSPRQGEDLPTSRCYRCCDPSTPVYQTIPPPQINITILKGEKGDRGDRGLQGKYGKIGSTGPRGHVGPKGQKGSIGAPGNHCKSQYAAFSVGRKKALHSNDYFQPVVFDTEFVNLYKHFNMFTGKFYCYVPGIYFFSLNVHTWNQKETYLHIMKNEEEVVILYAQVSDRSIMQSQSLMMELREEDEVWVRLFKGERENAIFSDEFDTYITFSGYLVKPASEP
modifications: N-linked glycans (site not given)

Biological target: the molecule itself
Experiment: SEC

Q: How did the “stoichiometry N” value turn out when B1 was run?
A: 3

Biological target: the molecule itself
Experiment: SEC
Remark: another data set of the same source

Q: With B2 as the protein, how does the “stoichiometry N” value read?
A: 3

Q: Which “stoichiometry N” value does the source give for B3 here?
A: 3 and ~6

Q: For B4, which “stoichiometry N” value is on record?
A: ~6 and 3

Q: With B5 as the protein, how does the “stoichiometry N” value read?
A: 3

Q: B6 was tested. Which “stoichiometry N” value did it give?
A: 3

Q: How did the “stoichiometry N” value turn out when B7 was run?
A: 3 and ~6

Q: How did the “stoichiometry N” value turn out when B8 was run?
A: 3 and 6

Q: For B9, which “stoichiometry N” value is on record?
A: 3 and ~6

Q: B10 was tested. Which “stoichiometry N” value did it give?
A: 3

Q: B11 was tested. Which “stoichiometry N” value did it give?
A: 3

Q: How did the “stoichiometry N” value turn out when B12 was run?
A: 3
